Source: PMC4201289 (Genes & Development, 2014)

Legend:
[1] = biological target: Mcm2–7 hexamer (minichromosome maintenance proteins 2–7) (S. cerevisiae) (UniProt P29469); experiment: cryo-EM structure
[2] = biological target: T1, Mcm4 (subunit in the Mcm2–7 double hexamer) (S. cerevisiae, UniProt P30665 1-933); experiment: negative stain EM, 3D reconstruction
T1 sequence: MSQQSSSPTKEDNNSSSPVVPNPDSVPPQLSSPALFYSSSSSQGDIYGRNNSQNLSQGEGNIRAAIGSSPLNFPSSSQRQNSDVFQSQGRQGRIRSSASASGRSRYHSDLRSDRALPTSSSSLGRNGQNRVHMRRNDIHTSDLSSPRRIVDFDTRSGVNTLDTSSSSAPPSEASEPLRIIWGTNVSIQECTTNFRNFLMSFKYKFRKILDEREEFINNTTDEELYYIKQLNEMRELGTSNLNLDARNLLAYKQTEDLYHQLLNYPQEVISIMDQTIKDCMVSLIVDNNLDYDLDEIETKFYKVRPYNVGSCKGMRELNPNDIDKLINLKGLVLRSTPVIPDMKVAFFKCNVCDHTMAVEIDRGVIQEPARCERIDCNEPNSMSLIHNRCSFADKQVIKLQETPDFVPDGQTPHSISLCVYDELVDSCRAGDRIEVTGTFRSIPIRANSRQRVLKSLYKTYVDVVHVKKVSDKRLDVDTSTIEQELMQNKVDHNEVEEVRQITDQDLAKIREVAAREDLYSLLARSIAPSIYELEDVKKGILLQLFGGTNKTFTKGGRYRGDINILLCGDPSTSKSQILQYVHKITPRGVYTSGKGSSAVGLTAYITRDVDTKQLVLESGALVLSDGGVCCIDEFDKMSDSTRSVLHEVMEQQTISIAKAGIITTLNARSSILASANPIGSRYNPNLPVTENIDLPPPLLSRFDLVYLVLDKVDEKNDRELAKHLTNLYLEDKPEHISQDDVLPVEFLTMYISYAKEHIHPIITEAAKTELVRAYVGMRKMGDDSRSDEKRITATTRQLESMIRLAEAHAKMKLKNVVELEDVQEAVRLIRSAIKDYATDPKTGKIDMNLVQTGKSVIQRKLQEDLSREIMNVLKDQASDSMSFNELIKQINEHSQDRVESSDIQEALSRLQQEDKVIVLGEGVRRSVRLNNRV

Mcm2–7 hexamer (minichromosome maintenance proteins 2–7) (from UniProt P29469;P24279;P30665;P29496;P53091;P38132) (complex)
stoichiometry N [1]: 2

B1: Mcm5 (subunit in the Mcm2–7 double hexamer) (natural protein)
chain: MSFDRPEIYSAPVLQGESPNDDDNTEIIKSFKNFILEFRLDSQFIYRDQLRNNILVKNYSLTVNMEHLIGYNEDIYKKLSDEPSDIIPLFETAITQVAKRISILSRAQSANNNDKDPENTSMDTDSLLLNSLPTFQLILNSNANQIPLRDLDSEHVSKIVRLSGIIISTSVLSSRATYLSIMCRNCRHTTSITINNFNSITGNTVSLPRSCLSTIESESSMANESNIGDESTKKNCGPDPYIIIHESSKFIDQQFLKLQEIPELVPVGEMPRNLTMTCDRYLTNKVIPGTRVTIVGIYSIYNSKNGAGSGRSGGGNGGSGVAIRTPYIKILGIQSDVETSSIWNSVTMFTEEEEEEFLQLSRNPKLYEILTNSIAPSIFGNEDIKKAIVCLLMGGSKKILPDGMRLRGDINVLLLGDPGTAKSQLLKFVEKVSPIAVYTSGKGSSAAGLTASVQRDPMTREFYLEGGAMVLADGGVVCIDEFDKMRDEDRVAIHEAMEQQTISIAKAGITTVLNSRTSVLAAANPIYGRYDDLKSPGDNIDFQTTILSRFDMIFIVKDDHNEERDISIANHVINIHTGNANAMQNQQEENGSEISIEKMKRYITYCRLKCAPRLSPQAAEKLSSNFVTIRKQLLINELESTERSSIPITIRQLEAIIRITESLAKLELSPIAQERHVDEAIRLFQASTMDAASQDPIGGLNQASGTSLSEIRRFEQELKRRLPIGWSTSYQTLRREFVDTHRFSQLALDKALYALEKHETIQLRHQGQNIYRSGV
binding result [2]: binds

B2: Mcm2 (subunit in the Mcm2–7 double hexamer) (natural protein)
chain: MSDNRRRRREEDDSDSENELPPSSPQQHFRGGMNPVSSPIGSPDMINPEGDDNEVDDVPDIDEVEEQMNEVDLMDDNMYEDYAADHNRDRYDPDQVDDREQQELSLSERRRIDAQLNERDRLLRNVAYIDDEDEEQEGAAQLDEMGLPVQRRRRRRQYEDLENSDDDLLSDMDIDPLREELTLESLSNVKANSYSEWITQPNVSRTIARELKSFLLEYTDETGRSVYGARIRTLGEMNSESLEVNYRHLAESKAILALFLAKCPEEMLKIFDLVAMEATELHYPDYARIHSEIHVRISDFPTIYSLRELRESNLSSLVRVTGVVTRRTGVFPQLKYVKFNCLKCGSILGPFFQDSNEEIRISFCTNCKSKGPFRVNGEKTVYRNYQRVTLQEAPGTVPPGRLPRHREVILLADLVDVSKPGEEVEVTGIYKNNYDGNLNAKNGFPVFATIIEANSIKRREGNTANEGEEGLDVFSWTEEEEREFRKISRDRGIIDKIISSMAPSIYGHRDIKTAVACSLFGGVPKNVNGKHSIRGDINVLLLGDPGTAKSQILKYVEKTAHRAVFATGQGASAVGLTASVRKDPITKEWTLEGGALVLADKGVCLIDEFDKMNDQDRTSIHEAMEQQSISISKAGIVTTLQARCSIIAAANPNGGRYNSTLPLAQNVSLTEPILSRFDILCVVRDLVDEEADERLATFVVDSHVRSHPENDEDREGEELKNNGESAIEQGEDEINEQLNARQRRLQRQRKKEEEISPIPQELLMKYIHYARTKIYPKLHQMDMDKVSRVYADLRRESISTGSFPITVRHLESILRIAESFAKMRLSEFVSSYDLDRAIKVVVDSFVDAQKVSVRRQLRRSFAIYTLGH
binding result [2]: binds
